Laboratory results taken from US20040214275.

B1: vWF-cleaving protease derived from human plasma (protein)
chain: AAGGILHLELLVAVGPDVFQAHQEDTERYVLTNLNIGAELLRDPSLGAQFRVHLVKMVILTEPEGAPNITANLTSSLLSVCGWSQTINPEDDTDPGHADLVLYITRFDLELPDGNRQVRGVTQLGGACSPTWSCLITEDTGFDLGVTIAHEIGHSFGLEHDGAPGSGCGPSGHVMASDGAAPRAGLAWSPCSRRQLLSLLSAGRARCVWDPPRPQPGSAGHPPDAQPGLYYSANEQCRVAFGPKAVACTFAREHLDMCQALSCHTDPLDQSSCSRLLVPLLDGTECGVEKWCSKGRCRSLVELTPIAAVHGRWSSWGPRSPCSRSCGGGVVTRRRQCNNPRPAFGGRACVGADLQAEMCNTQACEKTQLEFMSQQCARTDGQPLRSSPGGASFYHWGAAVPHSQGDALCRHMCRAIGESFIMKRGDSFLDGTRCMPSGPREDGTLSLCVSGSCRTFGCDGRMDSQQVWDRCQVCGGDNSTCSPRKGSFTAGRAREYVTFLTVTPNLTSVYIANHRPLFTHLAVRIGGRYVVAGKMSISPNTTYPSLLEDGRVEYRVALTEDRLPRLEEIRIWGPLQEDADIQVYRRYGEEYGNLTRPDITFTYFQPKPRQAWVWAAVRGPCSVSCGAGLRWVNYSCLDQARKELVETVQCQGSQQPPAWPEACVLEPCPPYWAVGDFGPCSASCGGGLRERPVRCVEAQGSLLKTLPPARCRAGAQQPAVALETCNPQPCPARWEVSEPSSCTSAGGAGLALENETCVPGADGLEAPVTEGPGSVDEKLPAPEPCVGMSCPPGWGHLDATSAGEKAPSPWGSIRTGAQAAHVWTPAAGSCSVSCGRGLMELRFLCMDSALRVPVQEELCGLASKPGSRREVCQAVPCPARWQYKLAACSVSCGRGVVRRILYCARAHGEDDGEEILLDTQCQGLPRPEPQEACSLEPCPPRWKVMSLGPCSASCGLGTARRSVACVQLDQGQDVEVDEAACAALVRPEASVPCLIADCTYRWHVGTWMECSVSCGDGIQRRRDTCLGPQAQAPVPADFCQHLPKPVTVRGCWAGPCVGQGTPSLVPHEEAAAPGRTTATPAGASLEWSQARGLLFSPAPQPRRLLPGPQENSVQSSACGRQHLEPTGTIDMRGPGQADCAVAIGRPLGEVVTLRVLESSLNCSAGDMLLLWGRLTWRKMCRKLLDMTFSSKTNTLVVRQRCGRPGGGVLLRYGSQLAPETFYRECDMQLFGPWGEIVSPSLSPATSNAGGCRLFINVAPHARIAIHALATNMGAGTEGANASYILIRDTHSLRTTAFHGQQVLYWESESSQAEMEFSEGFLKAQASLRGQYWTLQSWVPEMQDPQSWKGKEGT

Columns and labels:
[1] = molecular target: von Willebrand factor purified from human plasma cryoprecipitate (UniProt P04275)
[2] = molecular target: von Willebrand factor purified from human plasma cryoprecipitate, P04275

Row | Molecule | vWF-cleaving activity (qualitative) [1] | vWF-cleaving activity [2]
1 | W897stop variant of the vWF-cleaving protease (lacking the region between the C-terminus and position W897) | a variant lacking a region between the C-terminus and the position W897 was found to have activity, although it was the result of qualitative analysis | –
2 | B1 | – | activity derived from the cryoprecipitate and the FI paste were found to cleave the peptide bond between residues Tyr 842 and Met 843
